# Publication doi:10.1101/2025.02.19.639050 (bioRxiv, 2025)
# What was measured:
# [1] = target: T1, Human epidermal growth factor receptor 2 (Homo sapiens, UniProt P04626); assay: SPR; Biacore 8K+; antibody captured on a Protein A chip, antigen injected (typically 0.16, 0.8, 4, 20 and 100 nM; 180 s association, 600 s dissociation, 30 µl/min); HBS-EP buffer pH 7.4, 0.15 M NaCl; single cycle or multi cycle kinetics; 1:1 binding model; details: both partners purified
# T1 construct: ERBB2), the antigen injected in SPR; also called HER2; ERBB2
# Oncostatin M = target: T2, Oncostatin M (Homo sapiens, UniProt P13725); assay: as above; details: both partners purified
# T2 construct: Oncostatin M (OSM), the antigen injected in SPR; also called OSM
# T2 sequence (P13725 26-221): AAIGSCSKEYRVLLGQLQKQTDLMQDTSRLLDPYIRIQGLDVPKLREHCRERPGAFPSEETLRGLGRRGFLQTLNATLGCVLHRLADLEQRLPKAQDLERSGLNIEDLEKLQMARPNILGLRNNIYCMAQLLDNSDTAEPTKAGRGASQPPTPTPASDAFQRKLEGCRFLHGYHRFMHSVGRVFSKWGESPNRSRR
binder,measurement,setting,value
"ERBB2-P00873 (antibody, V domains shown, as the heavy chain of m2 (trastuzumab, PDB 1N8Z) with changes; as the light chain of m2 (trastuzumab, PDB 1N8Z); Expressed as IgG; also called design of hu4D5 (5 edits, 1 insertion); source: Expi293F, transient (GLFs), purified (Protein A)) VH: VQLVESDGGGLVQQGGSLRLSCAASGFNIKDRYIHWVRQAPGKGLEWVARIYPTNGYTRYADRVKGRFTISADTSKNTAYLQMFSLRAEDTAVYYCSRWGGDGFYAMDYWGQGTLVTVSS VL: not shown",fold improvement in binding relative to trastuzumab (hu4D5),[1],> 4 fold
same,ΔpKD relative to trastuzumab (hu4D5),[1],0.688
"seed OSM-N021 (antibody, V domains shown, IgG in SPR; the Fab was crystallised; source: Expi293F, transient (GLFs), purified (Protein A)) VH: EVQLVESGGGLVQPGGSLRLSCAASGFTFNIYSMNWVRQAPGKGLEWISYISGNSNTIYYADSVKGRFTISRDNAKNSVYLQMNSLRDEDTAVYYCARSLLRYFDWLSAFDIWGQGTMVTVSS VL: EIVLTQSPGTLSLSPGERATLSCRASQSVGSSYLAWYQQRPGQAPRLLIHGASSRATGIPDRFSGSGSGTDFTLTISGLEPEDVAVYYCQQYGSSPLTFGGGTKVEIK",binding result,Oncostatin M,binds
"design 9N7M (antibody, V domains shown, the Fab of this design is deposited as PDB 9N7M (heavy chain); the Fab of this design is deposited as PDB 9N7M (light chain); IgG in SPR; the Fab (CHO) was crystallised; also called design of seed OSM-N021 with G+Y mutations in the stem region of CDRH3; source: Expi293F, transient (GLFs), purified (Protein A)) VH: EVQLVESGGGLVQPGGSLRLSCAASGFTFNIYSMNWVRQAPGKGLEWISYISSGSNTIYYADSVKGRFTISRDNAENSLYLQMNSLRDEDTAVYYCARSGLRYFDWLSYFDIWGQGTLVTVSS VL: EIVLTQSPGTLSLSPGERATLSCRASQSVGSSYLAWYQQRPGQAPRLLIHGASSRATGIPDRFSGSGSGTDFTLTISGLEPEDVAVYYCQQYGSSPLTFGGGTKVEIK",fold improvement in affinity relative to the seed OSM-N021,Oncostatin M,3.6 fold
same,ΔpKD relative to the seed OSM-N021,Oncostatin M,0.56
"design 9N7O (antibody, V domains shown, the Fab of this design is deposited as PDB 9N7O (heavy chain); the Fab of this design is deposited as PDB 9N7O (light chain); IgG in SPR; the Fab (CHO) was crystallised; also called design of seed OSM-N021 with S+Y mutations in the stem region of CDRH3; source: Expi293F, transient (GLFs), purified (Protein A)) VH: EVQLVESGGGLVQPGGSLRLSCAASGFTFTIYSMNWVRQAPGKGLEWISYISSGSNTIYYADSVKGRFTISRDNAKNSLYLQMNSLRDEDTAVYYCARSSLRYFDWLSYFDYWGQGTMVTVSS VL: EIVLTQSPGTLSLSPGERATLSCRASQSVGSSYLAWYQQRPGQAPRLLIHGASSRATGIPDRFSGSGSGTDFTLTISGLEPEDVAVYYCQQYGSSPLTFGGGTKVEIK",fold improvement in affinity relative to the seed OSM-N021,Oncostatin M,~4.5 fold
same,ΔpKD relative to the seed OSM-N021,Oncostatin M,0.65
